Measured values taken from IntAct's records for PubMed 31515488.

B1: Zinc finger and BTB domain-containing protein 9 (Homo sapiens), Q96C00 (parent)
chain: METPTPLPPVPASPTCNPAPRTIQIEFPQHSSSLLESLNRHRLEGKFCDVSLLVQGRELRAHKAVLAAASPYFHDKLLLGDAPRLTLPSVIEADAFEGLLQLIYSGRLRLPLDALPAHLLVASGLQMWQVVDQCSEILRELETSGGGISARGGNSYHALLSTTSSTGGWCIRSSPFQTPVQSSASTESPASTESPVGGEGSELGEVLQIQVEEEEEEEEDDDDEDQGSATLSQTPQPQRVSGVFPRPHGPHPLPMTATPRKLPEGESAPLELPAPPALPPKIFYIKQEPFEPKEEISGSGTQPGGAKEETKVFSGGDTEGNGELGFLLPSGPGPTSGGGGPSWKPVDLHGNEILSGGGGPGGAGQAVHGPVKLGGTPPADGKRFGCLCGKRFAVKPKRDRHIMLTFSLRPFGCGICNKRFKLKHHLTEHMKTHAGALHACPHCGRRFRVHACFLRHRDLCKGQGWATAHWTYK
B2: Keratin, type I cytoskeletal 18 (Homo sapiens), P05783 (parent)
chain: MSFTTRSTFSTNYRSLGSVQAPSYGARPVSSAASVYAGAGGSGSRISVSRSTSFRGGMGSGGLATGIAGGLAGMGGIQNEKETMQSLNDRLASYLDRVRSLETENRRLESKIREHLEKKGPQVRDWSHYFKIIEDLRAQIFANTVDNARIVLQIDNARLAADDFRVKYETELAMRQSVENDIHGLRKVIDDTNITRLQLETEIEALKEELLFMKKNHEEEVKGLQAQIASSGLTVEVDAPKSQDLAKIMADIRAQYDELARKNREELDKYWSQQIEESTTVVTTQSAEVGAAETTLTELRRTVQSLEIDLDSMRNLKASLENSLREVEARYALQMEQLNGILLHLESELAQTRAEGQRQAQEYEALLNIKVKLEAEIATYRRLLEDGEDFNLGDALDSSNSMQTIQKTTTRRIVDGKVVSETNDTKVLRH
partner: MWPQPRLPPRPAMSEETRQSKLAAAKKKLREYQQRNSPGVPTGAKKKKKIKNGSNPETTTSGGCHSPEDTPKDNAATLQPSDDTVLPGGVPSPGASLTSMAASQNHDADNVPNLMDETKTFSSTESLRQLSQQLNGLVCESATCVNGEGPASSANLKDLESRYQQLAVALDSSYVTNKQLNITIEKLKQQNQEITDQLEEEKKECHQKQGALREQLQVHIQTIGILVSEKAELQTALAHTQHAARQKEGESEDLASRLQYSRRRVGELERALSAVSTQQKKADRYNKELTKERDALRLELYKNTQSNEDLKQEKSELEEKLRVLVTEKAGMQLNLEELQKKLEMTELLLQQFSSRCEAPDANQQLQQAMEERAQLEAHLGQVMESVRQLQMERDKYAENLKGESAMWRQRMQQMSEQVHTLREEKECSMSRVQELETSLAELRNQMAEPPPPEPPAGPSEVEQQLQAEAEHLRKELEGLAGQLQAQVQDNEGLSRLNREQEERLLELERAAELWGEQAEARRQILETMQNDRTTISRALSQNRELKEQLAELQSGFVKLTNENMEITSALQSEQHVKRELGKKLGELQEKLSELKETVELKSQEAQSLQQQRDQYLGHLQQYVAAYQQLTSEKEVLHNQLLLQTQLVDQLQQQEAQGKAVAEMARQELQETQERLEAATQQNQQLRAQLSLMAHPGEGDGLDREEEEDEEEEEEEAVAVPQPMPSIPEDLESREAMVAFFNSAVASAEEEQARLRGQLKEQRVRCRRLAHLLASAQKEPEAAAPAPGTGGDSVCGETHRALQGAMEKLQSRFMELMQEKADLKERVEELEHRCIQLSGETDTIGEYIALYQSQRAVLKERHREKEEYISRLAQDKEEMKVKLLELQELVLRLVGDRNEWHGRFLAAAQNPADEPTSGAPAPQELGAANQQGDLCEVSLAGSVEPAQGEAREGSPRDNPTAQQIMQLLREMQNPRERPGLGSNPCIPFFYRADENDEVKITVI
B3: mRNA-decapping enzyme 1A (Homo sapiens), Q9NPI6 (parent)
chain: MEALSRAGQEMSLAALKQHDPYITSIADLTGQVALYTFCPKANQWEKTDIEGTLFVYRRSASPYHGFTIVNRLNMHNLVEPVNKDLEFQLHEPFLLYRNASLSIYSIWFYDKNDCHRIAKLMADVVEEETRRSQQAARDKQSPSQANGCSDHRPIDILEMLSRAKDEYERNQMGDSNISSPGLQPSTQLSNLGSTETLEEMPSGSQDKSAPSGHKHLTVEELFGTSLPKEQPAVVGLDSEEMERLPGDASQKEPNSFLPFPFEQLGGAPQSETLGVPSAAHHSVQPEITTPVLITPASITQSNEKHAPTYTIPLSPVLSPTLPAEAPTAQVPPSLPRNSTMMQAVKTTPRQRSPLLNQPVPELSHASLIANQSPFRAPLNVTNTAGTSLPSVDLLQKLRLTPQHDQIQTQPLGKGAMVASFSPAAGQLATPESFIEPPSKTAAARVAASASLSNMVLAPLQSMQQNQDPEVFVQPKVLSSAIPVAGAPLVTATTTAVSSVLLAPSVFQQTVTRSSDLERKASSPSPLTIGTPESQRKPSIILSKSQLQDTLIHLIKNDSSFLSTLHEVYLQVLTKNKDNHNL
partner: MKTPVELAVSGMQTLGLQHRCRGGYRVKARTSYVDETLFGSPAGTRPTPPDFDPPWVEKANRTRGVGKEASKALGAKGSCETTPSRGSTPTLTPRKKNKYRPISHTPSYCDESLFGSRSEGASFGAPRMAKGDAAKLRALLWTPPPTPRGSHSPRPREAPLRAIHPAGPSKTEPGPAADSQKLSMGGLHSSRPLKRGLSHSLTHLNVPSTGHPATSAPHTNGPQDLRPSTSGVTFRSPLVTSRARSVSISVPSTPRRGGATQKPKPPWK
B4: Cyclin-dependent kinase 4 inhibitor D (Homo sapiens), P55273 (parent)
chain: MLLEEVRAGDRLSGAAARGDVQEVRRLLHRELVHPDALNRFGKTALQVMMFGSTAIALELLKQGASPNVQDTSGTSPVHDAARTGFLDTLKVLVEHGADVNVPDGTGALPIHLAVQEGHTAVVSFLAAESDLHRRDARGLTPLELALQRGAQDLVDILQGHMVAPL

Variants of: B1
Settings: with pin4_human PIN4, Q9Y237

| Variant | effect of a mutation on the interaction |
| --- | --- |
| S173C | with no effect |

Variants of: B1
Settings: with if4e2_human EIF4E2, O60573

| Variant | effect of a mutation on the interaction |
| --- | --- |
| S173C | with no effect |

Variants of: B1
Settings: with mo4l1_human MORF4L1, Q9UBU8

| Variant | effect of a mutation on the interaction |
| --- | --- |
| S173C | with no effect |

Variants of: B2
Settings: with goga2_human GOLGA2, Q08379

| Variant | effect of a mutation on the interaction |
| --- | --- |
| R158H | with no effect |
| S230T | with no effect |

Variants of: B3
Settings: with rita1_human RITA1, Q96K30

| Variant | effect of a mutation on the interaction |
| --- | --- |
| Q474H | with no effect |
| A297G | with no effect |
| P332T | with no effect |

Variants of: B4
Settings: with nr4a1_human NR4A1, P22736

| Variant | effect of a mutation on the interaction |
| --- | --- |
| A121S | with no effect |

Variants of: B4
Settings: with cdk4_human CDK4, P11802

| Variant | effect of a mutation on the interaction |
| --- | --- |
| A121S | with no effect |

Variants of: B4
Settings: with nr4a2_human NR4A2, P43354

| Variant | effect of a mutation on the interaction |
| --- | --- |
| A121S | with no effect |

Variants of: B4
Settings: with cdk6_human CDK6, Q00534

| Variant | effect of a mutation on the interaction |
| --- | --- |
| A121S | with no effect |
| V94M | with no effect |
| P67L | with no effect |
